Consider one substance from US20080008648A1.

For the test, the target named is human IL13 (human) (UniProt P35225). In words: cell-based or functional assay.
Chain of human IL13 (human) (P35225 35-146 limits assumed): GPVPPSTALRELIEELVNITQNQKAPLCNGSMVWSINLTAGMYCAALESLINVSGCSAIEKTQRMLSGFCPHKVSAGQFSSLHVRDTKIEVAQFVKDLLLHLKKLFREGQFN

“anti-IL13 mAb JES10-5A2 (BD Biosciences-Pharmingen) (antibody)” had an inhibition of IL13-suppressed CD14 expression on human monocytes (complete inhibition) above 80 nM.
